Test results taken from patent US20190185537A1 (AstraZeneca / MedImmune, published 2019).
Several values for one entry are separate records, joined by “and”; a condition that tells them apart may be missing. Equal entries are not always repeated. Numbered stars: 1 amine (or outer) side, 2 acyl side, 3 side chain; on linkers, the order of the positions; unused ones are H or OH. Side chains are listed from the residue outwards. Ends that are not written are not given here. * marks the point of attachment. γGlu = O=C(O)[C@H](CCC(=O)[*:2])N[*:1]; Palmitoyl = CCCCCCCCCCCCCCCC(=O)*

T1: human glucose-dependent insulinotropic peptide (gastric inhibitory polypeptide) receptor (human) (UniProt P48546)
T1 sequence (looked up): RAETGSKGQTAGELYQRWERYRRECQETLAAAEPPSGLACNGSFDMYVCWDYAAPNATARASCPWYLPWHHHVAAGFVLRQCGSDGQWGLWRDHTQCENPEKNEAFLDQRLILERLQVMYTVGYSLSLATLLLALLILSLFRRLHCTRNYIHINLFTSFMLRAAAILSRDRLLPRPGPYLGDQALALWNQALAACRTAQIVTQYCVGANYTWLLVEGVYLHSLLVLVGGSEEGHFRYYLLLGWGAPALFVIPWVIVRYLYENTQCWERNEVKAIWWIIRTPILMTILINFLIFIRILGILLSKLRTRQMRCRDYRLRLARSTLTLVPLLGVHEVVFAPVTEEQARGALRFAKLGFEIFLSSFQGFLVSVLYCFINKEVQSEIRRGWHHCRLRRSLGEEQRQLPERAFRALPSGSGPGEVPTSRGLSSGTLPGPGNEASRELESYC

B1: g660 (peptide)
peptide: HGQGTFTSDYSKYLDSK([γGlu-Palmitoyl])RARDFVEWLVAGG-NH2
modifications: N-terminus assumed
SMILES: CCCCCCCCCCCCCCCC(=O)N[C@@H](CCC(=O)NCCCC[C@H](NC(=O)[C@H](CO)NC(=O)[C@H](CC(=O)O)NC(=O)[C@H](CC(C)C)NC(=O)[C@H](Cc1ccc(O)cc1)NC(=O)[C@H](CCCCN)NC(=O)[C@H](CO)NC(=O)[C@H](Cc1ccc(O)cc1)NC(=O)[C@H](CC(=O)O)NC(=O)[C@H](CO)NC(=O)[C@@H](NC(=O)[C@H](Cc1ccccc1)NC(=O)[C@@H](NC(=O)CNC(=O)[C@H](CCC(N)=O)NC(=O)CNC(=O)[C@@H](N)Cc1c[nH]cn1)[C@@H](C)O)[C@@H](C)O)C(=O)N[C@@H](CCCNC(=N)N)C(=O)N[C@@H](C)C(=O)N[C@@H](CCCNC(=N)N)C(=O)N[C@@H](CC(=O)O)C(=O)N[C@@H](Cc1ccccc1)C(=O)N[C@H](C(=O)N[C@@H](CCC(=O)O)C(=O)N[C@@H](Cc1c[nH]c2ccccc12)C(=O)N[C@@H](CC(C)C)C(=O)N[C@H](C(=O)N[C@@H](C)C(=O)NCC(=O)NCC(N)=O)C(C)C)C(C)C)C(=O)O
B2: g639 (peptide)
peptide: HSEGTFTSDYSKYLDSK([γGlu-Palmitoyl])RAEDFVEWLVAGG-NH2
modifications: N-terminus assumed
SMILES: CCCCCCCCCCCCCCCC(=O)N[C@@H](CCC(=O)NCCCC[C@H](NC(=O)[C@H](CO)NC(=O)[C@H](CC(=O)O)NC(=O)[C@H](CC(C)C)NC(=O)[C@H](Cc1ccc(O)cc1)NC(=O)[C@H](CCCCN)NC(=O)[C@H](CO)NC(=O)[C@H](Cc1ccc(O)cc1)NC(=O)[C@H](CC(=O)O)NC(=O)[C@H](CO)NC(=O)[C@@H](NC(=O)[C@H](Cc1ccccc1)NC(=O)[C@@H](NC(=O)CNC(=O)[C@H](CCC(=O)O)NC(=O)[C@H](CO)NC(=O)[C@@H](N)Cc1c[nH]cn1)[C@@H](C)O)[C@@H](C)O)C(=O)N[C@@H](CCCNC(=N)N)C(=O)N[C@@H](C)C(=O)N[C@@H](CCC(=O)O)C(=O)N[C@@H](CC(=O)O)C(=O)N[C@@H](Cc1ccccc1)C(=O)N[C@H](C(=O)N[C@@H](CCC(=O)O)C(=O)N[C@@H](Cc1c[nH]c2ccccc12)C(=O)N[C@@H](CC(C)C)C(=O)N[C@H](C(=O)N[C@@H](C)C(=O)NCC(=O)NCC(N)=O)C(C)C)C(C)C)C(=O)O
B3: g681 (peptide)
peptide: HGEGTFTSDYSKYLDSK([γGlu-Palmitoyl])RAEDFVEWLVAGG-NH2
modifications: N-terminus assumed
SMILES: CCCCCCCCCCCCCCCC(=O)N[C@@H](CCC(=O)NCCCC[C@H](NC(=O)[C@H](CO)NC(=O)[C@H](CC(=O)O)NC(=O)[C@H](CC(C)C)NC(=O)[C@H](Cc1ccc(O)cc1)NC(=O)[C@H](CCCCN)NC(=O)[C@H](CO)NC(=O)[C@H](Cc1ccc(O)cc1)NC(=O)[C@H](CC(=O)O)NC(=O)[C@H](CO)NC(=O)[C@@H](NC(=O)[C@H](Cc1ccccc1)NC(=O)[C@@H](NC(=O)CNC(=O)[C@H](CCC(=O)O)NC(=O)CNC(=O)[C@@H](N)Cc1c[nH]cn1)[C@@H](C)O)[C@@H](C)O)C(=O)N[C@@H](CCCNC(=N)N)C(=O)N[C@@H](C)C(=O)N[C@@H](CCC(=O)O)C(=O)N[C@@H](CC(=O)O)C(=O)N[C@@H](Cc1ccccc1)C(=O)N[C@H](C(=O)N[C@@H](CCC(=O)O)C(=O)N[C@@H](Cc1c[nH]c2ccccc12)C(=O)N[C@@H](CC(C)C)C(=O)N[C@H](C(=O)N[C@@H](C)C(=O)NCC(=O)NCC(N)=O)C(C)C)C(C)C)C(=O)O
B4: g835 (peptide)
peptide: HSQGTFTSDYSEYLDSK([γGlu-Palmitoyl])RARDFVEWLVAGG-NH2
modifications: N-terminus assumed
SMILES: CCCCCCCCCCCCCCCC(=O)N[C@@H](CCC(=O)NCCCC[C@H](NC(=O)[C@H](CO)NC(=O)[C@H](CC(=O)O)NC(=O)[C@H](CC(C)C)NC(=O)[C@H](Cc1ccc(O)cc1)NC(=O)[C@H](CCC(=O)O)NC(=O)[C@H](CO)NC(=O)[C@H](Cc1ccc(O)cc1)NC(=O)[C@H](CC(=O)O)NC(=O)[C@H](CO)NC(=O)[C@@H](NC(=O)[C@H](Cc1ccccc1)NC(=O)[C@@H](NC(=O)CNC(=O)[C@H](CCC(N)=O)NC(=O)[C@H](CO)NC(=O)[C@@H](N)Cc1c[nH]cn1)[C@@H](C)O)[C@@H](C)O)C(=O)N[C@@H](CCCNC(=N)N)C(=O)N[C@@H](C)C(=O)N[C@@H](CCCNC(=N)N)C(=O)N[C@@H](CC(=O)O)C(=O)N[C@@H](Cc1ccccc1)C(=O)N[C@H](C(=O)N[C@@H](CCC(=O)O)C(=O)N[C@@H](Cc1c[nH]c2ccccc12)C(=O)N[C@@H](CC(C)C)C(=O)N[C@H](C(=O)N[C@@H](C)C(=O)NCC(=O)NCC(N)=O)C(C)C)C(C)C)C(=O)O
B5: g680 (peptide)
peptide: HGQGTFTSDYSKYLDSK([γGlu-Palmitoyl])RAEDFVEWLVAGG-NH2
modifications: N-terminus assumed
SMILES: CCCCCCCCCCCCCCCC(=O)N[C@@H](CCC(=O)NCCCC[C@H](NC(=O)[C@H](CO)NC(=O)[C@H](CC(=O)O)NC(=O)[C@H](CC(C)C)NC(=O)[C@H](Cc1ccc(O)cc1)NC(=O)[C@H](CCCCN)NC(=O)[C@H](CO)NC(=O)[C@H](Cc1ccc(O)cc1)NC(=O)[C@H](CC(=O)O)NC(=O)[C@H](CO)NC(=O)[C@@H](NC(=O)[C@H](Cc1ccccc1)NC(=O)[C@@H](NC(=O)CNC(=O)[C@H](CCC(N)=O)NC(=O)CNC(=O)[C@@H](N)Cc1c[nH]cn1)[C@@H](C)O)[C@@H](C)O)C(=O)N[C@@H](CCCNC(=N)N)C(=O)N[C@@H](C)C(=O)N[C@@H](CCC(=O)O)C(=O)N[C@@H](CC(=O)O)C(=O)N[C@@H](Cc1ccccc1)C(=O)N[C@H](C(=O)N[C@@H](CCC(=O)O)C(=O)N[C@@H](Cc1c[nH]c2ccccc12)C(=O)N[C@@H](CC(C)C)C(=O)N[C@H](C(=O)N[C@@H](C)C(=O)NCC(=O)NCC(N)=O)C(C)C)C(C)C)C(=O)O
B6: g600 (peptide)
peptide: HSQGTFTSDYSKYLDSK([γGlu-Palmitoyl])RAQDFVEWLVAGG-NH2
modifications: N-terminus assumed
SMILES: CCCCCCCCCCCCCCCC(=O)N[C@@H](CCC(=O)NCCCC[C@H](NC(=O)[C@H](CO)NC(=O)[C@H](CC(=O)O)NC(=O)[C@H](CC(C)C)NC(=O)[C@H](Cc1ccc(O)cc1)NC(=O)[C@H](CCCCN)NC(=O)[C@H](CO)NC(=O)[C@H](Cc1ccc(O)cc1)NC(=O)[C@H](CC(=O)O)NC(=O)[C@H](CO)NC(=O)[C@@H](NC(=O)[C@H](Cc1ccccc1)NC(=O)[C@@H](NC(=O)CNC(=O)[C@H](CCC(N)=O)NC(=O)[C@H](CO)NC(=O)[C@@H](N)Cc1c[nH]cn1)[C@@H](C)O)[C@@H](C)O)C(=O)N[C@@H](CCCNC(=N)N)C(=O)N[C@@H](C)C(=O)N[C@@H](CCC(N)=O)C(=O)N[C@@H](CC(=O)O)C(=O)N[C@@H](Cc1ccccc1)C(=O)N[C@H](C(=O)N[C@@H](CCC(=O)O)C(=O)N[C@@H](Cc1c[nH]c2ccccc12)C(=O)N[C@@H](CC(C)C)C(=O)N[C@H](C(=O)N[C@@H](C)C(=O)NCC(=O)NCC(N)=O)C(C)C)C(C)C)C(=O)O
B7: g776 (peptide)
peptide: HSQGTFTSDYSKYLDSK([γGlu-Palmitoyl])RARDFVEWLVAGG-NH2
modifications: N-terminus assumed
SMILES: CCCCCCCCCCCCCCCC(=O)N[C@@H](CCC(=O)NCCCC[C@H](NC(=O)[C@H](CO)NC(=O)[C@H](CC(=O)O)NC(=O)[C@H](CC(C)C)NC(=O)[C@H](Cc1ccc(O)cc1)NC(=O)[C@H](CCCCN)NC(=O)[C@H](CO)NC(=O)[C@H](Cc1ccc(O)cc1)NC(=O)[C@H](CC(=O)O)NC(=O)[C@H](CO)NC(=O)[C@@H](NC(=O)[C@H](Cc1ccccc1)NC(=O)[C@@H](NC(=O)CNC(=O)[C@H](CCC(N)=O)NC(=O)[C@H](CO)NC(=O)[C@@H](N)Cc1c[nH]cn1)[C@@H](C)O)[C@@H](C)O)C(=O)N[C@@H](CCCNC(=N)N)C(=O)N[C@@H](C)C(=O)N[C@@H](CCCNC(=N)N)C(=O)N[C@@H](CC(=O)O)C(=O)N[C@@H](Cc1ccccc1)C(=O)N[C@H](C(=O)N[C@@H](CCC(=O)O)C(=O)N[C@@H](Cc1c[nH]c2ccccc12)C(=O)N[C@@H](CC(C)C)C(=O)N[C@H](C(=O)N[C@@H](C)C(=O)NCC(=O)NCC(N)=O)C(C)C)C(C)C)C(=O)O

Target: T1, human glucose-dependent insulinotropic peptide (gastric inhibitory polypeptide) receptor (human)
Test: cell-based or functional assay

cAMP EC50 (assay 1)	Binder
332 nM	B1
82.1 nM	B2
124 nM	B3
97.2 nM	B4
96.7 nM	B5
82.8 nM and 124 nM	B6
47.9 nM	B7

Target: human GLP-1 receptor (human, UniProt P43220 24-463)
Test: cell-based or functional assay

Sequence of human GLP-1 receptor (P43220 24-463): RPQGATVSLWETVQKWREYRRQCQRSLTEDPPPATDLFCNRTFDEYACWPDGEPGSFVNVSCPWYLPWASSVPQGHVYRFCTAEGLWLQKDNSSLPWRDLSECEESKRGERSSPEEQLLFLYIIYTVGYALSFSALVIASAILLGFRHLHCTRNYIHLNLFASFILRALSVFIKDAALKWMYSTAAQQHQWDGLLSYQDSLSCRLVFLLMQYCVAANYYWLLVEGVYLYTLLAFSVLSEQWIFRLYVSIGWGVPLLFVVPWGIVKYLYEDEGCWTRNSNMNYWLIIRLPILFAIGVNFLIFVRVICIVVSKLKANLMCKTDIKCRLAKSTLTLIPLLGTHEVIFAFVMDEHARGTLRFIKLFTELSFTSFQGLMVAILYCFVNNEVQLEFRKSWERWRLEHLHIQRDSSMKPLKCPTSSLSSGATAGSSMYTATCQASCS

cAMP EC50 (assay 1) [pM]	Binder
1060	B1
244	B2
283	B3
191	B4
195	B5
66.6	B6
70.2	B7

Target: human glucagon receptor (human, UniProt P47871 26-477)
Test: cell-based or functional assay

Sequence of human glucagon receptor (P47871 26-477): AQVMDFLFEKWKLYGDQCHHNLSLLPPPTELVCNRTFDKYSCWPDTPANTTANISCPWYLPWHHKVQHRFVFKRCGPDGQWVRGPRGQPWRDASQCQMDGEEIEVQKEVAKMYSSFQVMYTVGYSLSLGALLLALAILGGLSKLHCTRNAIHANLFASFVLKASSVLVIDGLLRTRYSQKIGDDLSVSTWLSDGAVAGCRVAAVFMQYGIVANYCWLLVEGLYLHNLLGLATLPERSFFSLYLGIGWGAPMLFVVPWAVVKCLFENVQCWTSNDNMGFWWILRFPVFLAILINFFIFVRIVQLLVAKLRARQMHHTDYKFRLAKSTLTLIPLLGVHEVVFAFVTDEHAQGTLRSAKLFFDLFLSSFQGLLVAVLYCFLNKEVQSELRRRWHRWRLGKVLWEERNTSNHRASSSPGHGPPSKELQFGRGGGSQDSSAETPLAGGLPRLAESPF

cAMP EC50 (assay 1) [nM]	Binder
1.52	B1
82.1	B2
39.9	B3
0.424	B4
3.68	B5
0.00547	B6
0.00465	B7
